Test results taken from PMC4779226.

How the values were obtained:
[1] = biological target: ChrC-His6, Fe superoxide dismutase ChrC of TnOtchr from Ochrobactrum tritici 5bvl1 (Ochrobactrum tritici 5bvl1); test: cross-linking; 10 ug purified enzyme with 0.1 % glutaraldehyde in 20 mM NaCl, 10 mM KCl, 2 mM DTT, 20 mM Hepes pH 7.5; 5, 15 and 30 min at 30 °C; 12 % SDS-PAGE
[2] = biological target: ChrC-His6, Fe superoxide dismutase ChrC of TnOtchr from Ochrobactrum tritici 5bvl1 (Ochrobactrum tritici 5bvl1); test: SEC; Superdex 200 10/300 GL, 0.5 mL/min, 50 mM Tris-HCl, 0.15 M NaCl, pH 7.4; mass from a curve of standard proteins
[3] = biological target: ChrF-His6, Mn superoxide dismutase ChrF of TnOtchr from Ochrobactrum tritici 5bvl1 (Ochrobactrum tritici 5bvl1); test: cross-linking; 10 ug purified enzyme with 0.1 % glutaraldehyde in 20 mM NaCl, 10 mM KCl, 2 mM DTT, 20 mM Hepes pH 7.5; 5, 15 and 30 min at 30 °C; 12 % SDS-PAGE
[4] = biological target: ChrF-His6, Mn superoxide dismutase ChrF of TnOtchr from Ochrobactrum tritici 5bvl1 (Ochrobactrum tritici 5bvl1); test: SEC; Superdex 200 10/300 GL, 0.5 mL/min, 50 mM Tris-HCl, 0.15 M NaCl, pH 7.4; mass from a curve of standard proteins

Row | Substance | stoichiometry N [1] | stoichiometry N [2] | stoichiometry N [3] | stoichiometry N [4]
1 | ChrC-His6, Fe superoxide dismutase ChrC of TnOtchr from Ochrobactrum tritici 5bvl1 (enzyme) | 4 | 4 | – | –
2 | ChrF-His6, Mn superoxide dismutase ChrF of TnOtchr from Ochrobactrum tritici 5bvl1 (enzyme) | – | – | 2 | 2
